Measurements as given in PMC3882260.

Biological target: Flag-NEO1 (UniProt Q92859)
Assay: immunostaining of cells or tissue; plate-based cell binding in 384-well plates: transfected COS-7 cells, blocked with PBS 1% BSA, CBLN4-Fc for 1 h on ice, fixed, detected with Alexa Fluor-488 anti-human IgG; candidate screen, titration series and DCC domain mapping

Chain of Flag-NEO1 (Q92859 34-1461): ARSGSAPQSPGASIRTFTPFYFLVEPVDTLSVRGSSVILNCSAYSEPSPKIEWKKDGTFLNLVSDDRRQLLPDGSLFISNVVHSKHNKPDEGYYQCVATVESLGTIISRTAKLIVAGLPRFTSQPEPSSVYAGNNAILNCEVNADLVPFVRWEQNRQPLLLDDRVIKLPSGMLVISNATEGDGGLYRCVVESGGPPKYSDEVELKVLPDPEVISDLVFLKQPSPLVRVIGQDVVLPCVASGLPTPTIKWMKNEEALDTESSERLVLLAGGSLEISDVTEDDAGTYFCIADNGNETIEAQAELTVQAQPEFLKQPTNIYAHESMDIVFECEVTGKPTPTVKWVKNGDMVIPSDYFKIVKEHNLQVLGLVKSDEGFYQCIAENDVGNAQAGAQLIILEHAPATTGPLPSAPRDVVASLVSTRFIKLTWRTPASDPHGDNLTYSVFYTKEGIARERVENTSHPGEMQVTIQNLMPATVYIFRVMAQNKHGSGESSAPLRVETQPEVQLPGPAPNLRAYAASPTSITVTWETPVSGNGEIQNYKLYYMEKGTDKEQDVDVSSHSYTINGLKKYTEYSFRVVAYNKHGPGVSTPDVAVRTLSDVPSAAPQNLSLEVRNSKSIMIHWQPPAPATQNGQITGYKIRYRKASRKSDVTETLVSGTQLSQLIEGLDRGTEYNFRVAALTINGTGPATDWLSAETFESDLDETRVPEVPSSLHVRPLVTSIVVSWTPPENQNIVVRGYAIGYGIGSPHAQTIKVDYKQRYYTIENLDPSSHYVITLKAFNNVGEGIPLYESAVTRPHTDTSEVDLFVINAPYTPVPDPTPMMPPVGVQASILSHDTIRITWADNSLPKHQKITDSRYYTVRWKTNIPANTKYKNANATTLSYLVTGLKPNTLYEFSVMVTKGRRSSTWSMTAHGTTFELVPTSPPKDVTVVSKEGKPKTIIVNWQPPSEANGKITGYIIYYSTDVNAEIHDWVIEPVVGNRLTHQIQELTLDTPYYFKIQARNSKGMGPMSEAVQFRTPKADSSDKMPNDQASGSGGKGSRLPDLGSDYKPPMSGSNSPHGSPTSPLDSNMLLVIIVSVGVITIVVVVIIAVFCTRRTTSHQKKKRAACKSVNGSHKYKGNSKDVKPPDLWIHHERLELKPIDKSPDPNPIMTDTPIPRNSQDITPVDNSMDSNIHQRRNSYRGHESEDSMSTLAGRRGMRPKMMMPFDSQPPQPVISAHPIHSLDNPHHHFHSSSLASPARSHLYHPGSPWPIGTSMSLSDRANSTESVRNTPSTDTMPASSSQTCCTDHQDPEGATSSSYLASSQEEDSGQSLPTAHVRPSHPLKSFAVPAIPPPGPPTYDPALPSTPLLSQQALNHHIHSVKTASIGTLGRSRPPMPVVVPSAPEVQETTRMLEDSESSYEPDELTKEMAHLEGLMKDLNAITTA

Q: For “human CBLN4 (M1-L201) with a C-terminal Fc tag (from UniProt Q9NTU7 28-201) (Fc fusion)”, which lowest CBLN4-Fc concentration at which binding was detected is on record?
A: 280 nM
